Results on one variant are retold here after publication PMC12519218 (2025).

B1: ATRAP-HA [not stated] / GST-AP4μ^160–453 [not stated] (parent complex)
chain 1: MELPAVNLKVILLGHWLLTTWGCIVFSGSYAWANFTILALGVWAVAQRDSIDAISMFLGGLLATIFLDIVHISIFYPRVSLTDTGRFGVGMAILSLLLKPLSCCFVYHMYRERGGELLVHTGFLGSSQDRSAYQTIDSAEAPADPFAVPEGRSQDARGY
chain 2: QQSKVAPSSAASRPVLSSRSDQSQKNEVFLDVVERLSVLIASNGSLLKVDVQGEIRLKSFLPSGSEMRIGLTEEFCVGKSELRGYGPGIRVDEVSFHSSVNLDEFESHRILRLQPPQGELTVMRYQLSDDLPSPLPFRLFPSVQWDRGSGRLQVYLKLRCDLLSKSQALNVRLHLPLPRGVVSLSQELSSPEQKAELAEGALRWDLPRVQGGSQLSGLFQMDVPGPPGPPSHGLSTSASPLGLGPASLSFELPRHTCSGLQVRFLRLAFRPCGNANPHKWVRHLSHSDAYVIRI

In this test the parent is B1. The test is described as follows: GST pull-down, immunoblot quantification; bound protein normalized to the 2% loading; sum of both groups normalized to 1 in each replicate; n = 4, mean ± SD; parent: 0.71; read off a plot. A general note: Immunoblotting shows a protein as a band on a membrane.
For chain 1 MELPAVNLKVILLGHWLLTTWGCIVFSGSYAWANFTILALGVWAVAQRDSIDAISMFLGGLLATIFLDIVHISIFYPRVSLTDTGRFGVGMAILSLLLKPLSCCFVYHMYRERGGELLVHTGFLGSSQDRSAAQTIDSAEAPADPFAVPEGRSQDARGY [chain 1 Y133A], the response was roughly 0.29.
